Reference: a protein production outcome set (Wang et al. 2014)

Assay: label from the status in PepcDB records
For “MSVLPCFSLMCSLSLGEVKAVKIKPMLARLQSAMGRDDLIDQMVLLPEPQKGQTTQSINLIVGYDASPNSHTALDIACWIAHQTRLATNQQVTVQAVYVVEDSNTKNRSNILSFAKRLPTIELPPSETKKSSTSVITQPKLTGIKSYLQTDTLTPLQEADRIIWQARTLAEEWQGSFKSHLRFGCVSTELRKVAEFEAADILFLGCKSVYHPLIETLGYNFPCAVLGIPECIDE”, the protein production was “failed”.
For “MSVPDNVYLIGTMNTADRSLAGLDIALRRRFDFVEMAPRPDKLTGVKVAEIDISAVLETMNRRIEVLLDREHRLGHAYFMSLENSNDLSRLSNIFRQQIIPLLQEYFFEDWQRIAWILNDHRKDERFRFIVPAPYSVDSLFGDTGQVAQDSKAWRMNEEAFHKPQSYLGLEHHHHHH”, the protein production was “not failed”.
For “MSVQKAVKSSHYEAESNMEQDIVRKAWVFKPSGLNFIWGGDSRYWVIPNEDRTPAELKKVSWLEVTGSYDKIEPGKTYRIGFKISFTADATGWDQAPVFMSAKIGKKGRTIWKRIKSVNNNFDKLKGGTGPVNIPDETDGRFEIFVSPKVAINQDTKLQFGLYEVWTGKWKTGLLIYEAFVEEV”, the protein production was “failed”.
In the case of “MSVQLVKGVNLHVIPTEKYKTVRLLVRFNTRLNHETITKRTLLSSLMETNSLNYPNQVKLSERLAELYGASFGIGVSKKGNQHWFNISMNIVNDHYLQDSQVLAEAVDFLKEIIFAPNIQAGQFEAETFQREKENLKAYLESIVEDKQTYASLALQSVYFNQSEDQKIPSFGTVAALAEETAASLAAYYQKMLAEDQVDIFVLGDVNEAELVPLFKQLPFTPREEGKAAIFYNQPIRNVIEERTEREVLAQSKLNLAYNTDIYYGDSYYFALQVFNGIFGGFPHSKLFMNVREKEHLAYYASSSIDTFRGFMTVQTGIDGKNRNQVLRLISTELENIRLGKIRELEIEQTKAMLKNQYILALDNAGAWLEKEYLNELMPQTMLTAEEWIARINAVTIPEIQEVAKRLELQAIFFLEGETEND”, the protein production was “not failed”.
With “MSVSIAYLAVLLIWSTTPLGIVWSSESINPSLAVLLRMLIALVLGALVIKIRNIHIPWHKQAVKLYSFSALGIFGGMLCSYLSAAYLSSGIISLVFGLSPVISALLAKKILSEPNISGMRKFSMAISLIGLAVVCSDNFTLADDGIYGIIFILMAVFFFSLSGVLVKSVSLAIHPLATTVGALSVATPLFLVSWLLLDGTLPIETWQAKSLWATLYLGVFGSLIGFYAYFTVLQKLSASNVTLITLITPVIALTLGAVLNGEVINDKLILGAFMVLLGLSIYHFGHLLPRLKKKRARS” the protein production was “failed”.
For “MSVTFSYLAETDYPVFTLGGSTADAARRLAASGCACAPVLDGERYLGMVHLSRLLEGRKGWPTVKEKLGEELLETVRSYRPGEQLFDNLISVAAAKCSVVPLADEDGRYEGVVSRKRILGFLAERI”, the protein production was “not failed”.
With “MSVTFSYLAETDYPVFTLGGSTADAARRLAASGCACAPVLDGERYLGMVHLSRLLEGRKGWPTVKEKLGEELLETVRSYRPGEQLFDNLISVAAAKCSVVPLADEDGRYEGVVSRKRILGFLAERIHSGEGGLTMEIEVPPTGAKLSEIIETIEKNDASILSFTSWTTGEGRIIFFRVATHDFFRLVRNMENYGYLIRYHSAFPNAGYDELREKALEFIHYMDM” the protein production was “not failed”.
In the case of “MSVTLVNNENNERYEFETIESTRGPKAVDFSKLFETTGFFSYDPGYSSTAGCQSKISYVNGKKGELYYRGHRIEDLVAKYKYVDVCKLLLTGELPKNQDESLEFELELRHRSFVHESLLNMFSAFPSNAHPMAKLSSGVSILSTLYSTHQNMHTEEDYQTMARRIVAKIPTLAAICYRNEVGAPIIYPDIARSYVENILFMLRGYPYSRLKHTTQGEVEITPLEVEAFDKILTLHADHSQNASSTTVRNVASTGVHPYAAISAGISALWGHLHGGANEKVLLQLEEIGDVKNVDKYIARVKDKNDNFKLMGFGHRVYKSYDPRAKILKGLKDELHQKGVKMDERLSEIAAKVEEIALKDEYFIERNLYPNVDFYSGTILRALKIPVRFFTPVFVIGRTVGWCAQLLEHVKSPQARITRPRQVYVGD”, the protein production was “failed”.
For “MSVVPVADVLQGRVAVDQEVTVRGWVRTRRDSKAGISFLAVYDGSCFDPVQAVINNSLPNYNEEVLHLTTGCSVVVTGKVVASPGQGQSFEIQATKVEVAGWVEDPDTYPMAAKRHSIEYLREVAHLRPRTNLIGAVARVRHTLAQALHRFFDEQGFFWVSTPLITASDTEGAGEMFRVSTLDLENLPRNDQGRVDFDKDFFGKESFLTVSGQLNGETYACALSKIYTFGPTFRAENSNTSRHLAEFWMLEPEVAFADLEDNARLAEAMLKYVFNAVLEERADDMKFFAERVDKDAIARLERFVSTDFAQVDYTDAVAILERCGKTFENPVFWGVDLSSEHERYLAEEHFKAPVVVKNYPKEIKAFYMRLNEDGKTVAAMDVLAPGIGEIIGGSQREERLDVLDARMAEMGLNKEDYWWYRDLRRYGTVPHSGFGLGFERLIAYVTGVQNVRDVIPFPRTPRNASF”, the protein production was “failed”.
With “MSVYLVALIGILILGLYILDLRKHKITTREIIMIGLSVAISYVLYMIPLVRYPQGGGITFFSMLPIMLLSLVYGRTVGVTGGLIFGLLKILNGAFIVHPVQFLLDYILSNMALGLAGSFGIDKKYKIFLGSLMAGSISTFVSIVSGVIFFGQYAPPGMNLWIYSIIYNTSSAGVESLLTAIVITIMPIKMLAKRMKPINNI” the protein production was “failed”.
For “MSWESINSKDLLSIPPSQNLSATRLLTSPDGSRYLLENSSDLCHLDESFSRLAGYGSSPDVGSRSVWASQALLRSGSVISCFLSCQQSLRQYIAKRKIERGRRLYEQNNQTEAVRTWRSALKGTCQREDCFQLLGYLYQAHMDWGKFREAIEFSHQQLGISEELDSPNMRAETYLNLSRAHASLGGLERSLSYARHSLYNECGTKCRSGLVHLTVARVYLEMGGFSRALEGLQGAYKIATAIGDPSLELQVYVALSELFGRLQDNDKSATYASKAYDLSRSLQLGDLNSCHHRAALLRMAVSLRKQGELGDAQDYCKEATKLSLISGDQATYTRSIRVMGDIYRNKMDMDRAFRQYEQAMGTSASLGDRMAQMEAMDGAARCLETLRLQNKICNCRPLEFNTRLLEVASSIGAKFLVRKIRCRLALIYRALGDEDQYNTHFRLANQTDAALGLNCGACGELLGLRPENLEALPCAHILHARCAYEILRRREKNAPRSCPACNKLISSRTHFCGSVPVESESTDRCVTAASTFNTNSLSVDGLLGINSDILLPSAAFCYVKNPALDTENSALLSPKVIYHSNLSLASLSMRASSLTIDSGQNVTSSV”, the protein production was “failed”.
In the case of “MSWLFSTLVFFLTLLTAGIALYLITARRYQSSNSVANSYDQWTEDGILEFYWGEHIHLGHYGSPPQRKDFLVAKSDFVHEMVRWGGLDKLPPGTTLLDVGCGIGGSSRILARDYGFAVTGITISPQQVQRAQELTPQELNAQFLVDDAMALSFPDNSFDVVWSIEAGPHMPDKAIFAKELMRVLKPGGIMVLADWNQRDDRQKPLNFWEKPVMQQLLDQWSHPAFSSIEGFSELLAATGLVEGEVITADWTKQTLPSWLDSIWQGIVRPEGLVRFGLSGFIKSLREVPTLLLMRLAFGTGLCRFGMFRALRADTVRSSAEQTSAIKVAQK”, the protein production was “failed”.
In the case of “MSWYRRTKLVFDSLRRNINPKILPRSHVTSRINNPIGSSNPSAKFSSISSREVGLRSWTSLGRNTNRIAYNPFLSQPKRYYYVDRYQVRHFKPRGPGRWFQNPRTVFTVVLVGSVGLITLIVGNTETIPYTKRTHFILLSKPMEKLLGETQFEQIKKTYQGKILPATHPESIRVRLIAKEVIDALQRGLSNERVWSDLGYASTESSLGGGSDKGVKEMEMAMSGEDTMTDMKWSKEDQVLDDQWIQKSRKKDSKAHAATSHLEGISWEVLVVNEPIVNAFCLPAGKIVVFTGLLNHFKSDAEVATVIGHEVGHAVARHVAEGITKNLWFAILQLVLYQFVMPDLVNTMSALFLRLPFSRKMEIEADYIGLLLLASAGYDPRVAPTVYEKLGKLGGDALGDYLSTHPSGKKRSKLLAQANVMEEALMIYREVQAGRTGVEGFL”, the protein production was “failed”.
In the case of “MSYGLIIVLMIILGIGLWHTKKYHRAVVNQVAHVWITKNAFEHTALGMAIVSPDCRFLKVNRAYGEITGYTRPELLKMAVKELTHPEDQEKDTPYLQEVFAGNIHSFTTVKRYIHKNGSTIWVRSTISAVRTERGNLEHHHHHH”, the protein production was “not failed”.
With “MSYGLIIVLMIILGIGLWHTKKYHRAVVNQVAHVWITKNAFEHTALGMAIVSPDCRFLKVNRAYGEITGYTRPELLKMAVKELTHPEDQEKDTPYLQEVFAGNIHSFTTVKRYIHKNGSTIWVRSTISAVRTERGNLKYFVLEHHHHHH” the protein production was “failed”.
